# Assay results: paper PMC7114247
# Target: rVP35 wt (Zaire ebolavirus) (UniProt Q05127)
# Chain of UniProt Q05127 (Q05127 whole entry): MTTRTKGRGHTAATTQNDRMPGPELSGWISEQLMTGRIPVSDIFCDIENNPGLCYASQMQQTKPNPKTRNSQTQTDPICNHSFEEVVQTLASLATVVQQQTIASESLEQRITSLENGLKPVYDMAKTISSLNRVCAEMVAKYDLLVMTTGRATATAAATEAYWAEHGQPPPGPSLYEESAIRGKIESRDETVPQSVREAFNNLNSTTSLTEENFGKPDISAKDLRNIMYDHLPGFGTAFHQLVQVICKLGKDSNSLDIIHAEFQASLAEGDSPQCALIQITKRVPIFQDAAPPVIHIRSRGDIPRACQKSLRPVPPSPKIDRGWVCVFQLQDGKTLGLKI
row,Substance,Kd
1,IVT 150 bp dsRNA,2.4 nM
2,IVT 50 bp dsRNA,3.2 nM
3,IVT 500 bp dsRNA,2.8 nM
